Values belong to the molecule of their own block, whether it stands above or below them. Active and inactive are the calls of the source. No cut-off for these calls is given here.
How the values were obtained:
Tyrosinase [1] = target: T1, Tyrosinase (Agaricus bisporus, UniProt O42713)
T1 sequence (O42713 whole entry): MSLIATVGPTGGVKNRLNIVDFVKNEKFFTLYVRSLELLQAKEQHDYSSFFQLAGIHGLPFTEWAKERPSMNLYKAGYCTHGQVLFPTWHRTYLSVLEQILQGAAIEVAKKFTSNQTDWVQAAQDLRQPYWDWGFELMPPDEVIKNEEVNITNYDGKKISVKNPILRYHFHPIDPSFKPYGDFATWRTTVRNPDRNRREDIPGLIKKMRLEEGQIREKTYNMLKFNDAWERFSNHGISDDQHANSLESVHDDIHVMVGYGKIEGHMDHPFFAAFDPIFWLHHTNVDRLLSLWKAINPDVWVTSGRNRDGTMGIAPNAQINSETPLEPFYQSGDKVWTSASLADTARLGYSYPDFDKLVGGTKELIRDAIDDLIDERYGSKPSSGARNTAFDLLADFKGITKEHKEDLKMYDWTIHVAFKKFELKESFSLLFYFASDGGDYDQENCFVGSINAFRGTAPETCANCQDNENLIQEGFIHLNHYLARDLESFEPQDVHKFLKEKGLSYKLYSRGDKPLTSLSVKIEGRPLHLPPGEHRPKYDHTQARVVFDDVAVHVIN

Tyrosinase [2] = target: T1, Tyrosinase; remark: listed apart in the source
Tyrosinase [3] = target: T1, Tyrosinase; remark: listed apart in the source
L929 = test: Cytotoxicity against mouse L929 cells assessed as decrease in cell viability after 24 hrs by MTT assay; assay type: cell-based; settings: l929, 24 h
HaCaT = test: Cytotoxicity against human HaCaT cells assessed as decrease in cell viability after 24 hrs by MTT assay; assay type: cell-based
[4] = target: T2, Tyrosinase (Agaricus bisporus) (UniProt O42713); settings: 8.75 to 140 uM
T2 sequence (whole entry): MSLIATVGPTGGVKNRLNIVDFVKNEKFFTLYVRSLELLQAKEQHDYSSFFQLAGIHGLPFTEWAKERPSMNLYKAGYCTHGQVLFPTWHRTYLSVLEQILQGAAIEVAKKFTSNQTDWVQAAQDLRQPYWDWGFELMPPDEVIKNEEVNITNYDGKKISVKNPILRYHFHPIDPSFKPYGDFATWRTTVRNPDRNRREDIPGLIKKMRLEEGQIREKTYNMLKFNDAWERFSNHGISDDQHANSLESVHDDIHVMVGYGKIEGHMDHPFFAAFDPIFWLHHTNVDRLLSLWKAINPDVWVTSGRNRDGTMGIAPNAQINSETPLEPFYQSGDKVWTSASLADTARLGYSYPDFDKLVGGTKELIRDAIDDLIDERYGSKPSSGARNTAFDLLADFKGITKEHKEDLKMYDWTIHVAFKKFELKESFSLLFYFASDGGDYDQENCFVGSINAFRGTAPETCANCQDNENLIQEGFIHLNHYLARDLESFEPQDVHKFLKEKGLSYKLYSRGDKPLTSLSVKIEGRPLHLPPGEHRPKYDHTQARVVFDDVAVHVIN

[5] = target: T2, Tyrosinase (Agaricus bisporus); test: Reversible inhibition of mushroom tyrosinase using L-DOPA as substrate at 10.6 to 342 uM
[6] = compound: COc1cc(C=O)ccc1OC(=O)CN1CCN(C)CC1; test: Non competitive inhibition of mushroom tyrosinase using L-DOPA as substrate assessed as enzyme Vmax at 10.68 uM preincubated for 10 mins followed by substrate addition measured after 20 mins by Lineweaver-Burk plot analysis (reference value: […] x 10^-4 to 2.66 x 10^-4 deltaA/s); settings: Agaricus bisporus
[7] = compound: COc1cc(C=O)ccc1OC(=O)CN1CCN(C)CC1; test: Non competitive inhibition of mushroom tyrosinase using L-DOPA as substrate assessed as enzyme Vmax at 21.37 uM preincubated for 10 mins followed by substrate addition measured after 20 mins by Lineweaver-Burk plot analysis (reference value: […] x 10^-4 to 2.66 x 10^-4 deltaA/s); settings: Agaricus bisporus
[8] = compound: COc1cc(C=O)ccc1OC(=O)CN1CCN(C)CC1; test: Non competitive inhibition of mushroom tyrosinase using L-DOPA as substrate assessed as enzyme Vmax at 42.75 uM preincubated for 10 mins followed by substrate addition measured after 20 mins by Lineweaver-Burk plot analysis (reference value: […] x 10^-4 to 2.66 x 10^-4 deltaA/s); settings: Agaricus bisporus
[9] = compound: COc1cc(C=O)ccc1OC(=O)CN1CCN(C)CC1; test: Non competitive inhibition of mushroom tyrosinase using L-DOPA as substrate assessed as enzyme Vmax at 85.5 uM preincubated for 10 mins followed by substrate addition measured after 20 mins by Lineweaver-Burk plot analysis (reference value: […] x 10^-4 to 2.66 x 10^-4 deltaA/s); settings: Agaricus bisporus
[10] = compound: COc1cc(C=O)ccc1OC(=O)CN1CCN(C)CC1; test: Non competitive inhibition of mushroom tyrosinase using L-DOPA as substrate assessed as enzyme Vmax at 342 uM preincubated for 10 mins followed by substrate addition measured after 20 mins by Lineweaver-Burk plot analysis (reference value: […] x 10^-4 to 2.66 x 10^-4 deltaA/s); settings: Agaricus bisporus
[11] = compound: COc1cc(C=O)ccc1OC(=O)CN1CCN(C)CC1; test: Non competitive inhibition of mushroom tyrosinase using L-DOPA as substrate assessed as enzyme Km at 10.68 uM preincubated for 10 mins followed by substrate addition measured after 20 mins by Lineweaver-Burk plot analysis (reference value: […] to […] mM); settings: Agaricus bisporus
[12] = compound: COc1cc(C=O)ccc1OC(=O)CN1CCN(C)CC1; test: Non competitive inhibition of mushroom tyrosinase using L-DOPA as substrate assessed as enzyme Km at 21.37 uM preincubated for 10 mins followed by substrate addition measured after 20 mins by Lineweaver-Burk plot analysis (reference value: […] to […] mM); settings: Agaricus bisporus
[13] = compound: COc1cc(C=O)ccc1OC(=O)CN1CCN(C)CC1; test: Non competitive inhibition of mushroom tyrosinase using L-DOPA as substrate assessed as enzyme Km at 42.75 uM preincubated for 10 mins followed by substrate addition measured after 20 mins by Lineweaver-Burk plot analysis (reference value: […] to […] mM); settings: Agaricus bisporus
[14] = compound: COc1cc(C=O)ccc1OC(=O)CN1CCN(C)CC1; test: Non competitive inhibition of mushroom tyrosinase using L-DOPA as substrate assessed as enzyme Km at 85.5 uM preincubated for 10 mins followed by substrate addition measured after 20 mins by Lineweaver-Burk plot analysis (reference value: […] to […] mM); settings: Agaricus bisporus
[15] = compound: COc1cc(C=O)ccc1OC(=O)CN1CCN(C)CC1; test: Non competitive inhibition of mushroom tyrosinase using L-DOPA as substrate assessed as enzyme Km at 342 uM preincubated for 10 mins followed by substrate addition measured after 20 mins by Lineweaver-Burk plot analysis (reference value: […] to […] mM); settings: Agaricus bisporus
[16] = substrate: COc1cc(C=O)ccc1OC(=O)COC(=O)/C=C/c1ccc(O)cc1; settings: Agaricus bisporus; 17.5 uM
[17] = substrate: COc1cc(C=O)ccc1OC(=O)COC(=O)/C=C/c1ccc(Cl)cc1; settings: Agaricus bisporus; 8.3 uM
[18] = substrate: COc1cc(C=O)ccc1OC(=O)COC(=O)/C=C/c1ccc(Cl)cc1; settings: Agaricus bisporus; 16.6 uM
[19] = substrate: COc1cc(C=O)ccc1OC(=O)COC(=O)/C=C/c1ccc(Cl)cc1; settings: Agaricus bisporus; 33.3 uM
[20] = substrate: COc1cc(C=O)ccc1OC(=O)COC(=O)c1ccc(O)cc1O; settings: Agaricus bisporus; 72.2 uM
[21] = substrate: COc1cc(C=O)ccc1OC(=O)COC(=O)c1ccc(O)cc1O; settings: Agaricus bisporus; 144.5 uM
[22] = substrate: COc1cc(C=O)ccc1OC(=O)COC(=O)c1ccc(O)cc1O; settings: Agaricus bisporus; 289 uM
[23] = substrate: COc1cc(C=O)ccc1OC(=O)COC(=O)/C=C/c1ccc(O)cc1; settings: Agaricus bisporus; 8.75 uM
[24] = substrate: COc1cc(C=O)ccc1OC(=O)COC(=O)/C=C/c1ccc(O)cc1; settings: Agaricus bisporus; 17.5 uM; remark: listed apart in the source
[25] = substrate: COc1cc(C=O)ccc1OC(=O)COC(=O)/C=C/c1ccc(Cl)cc1; settings: Agaricus bisporus; 8.3 uM; remark: listed apart in the source
[26] = substrate: COc1cc(C=O)ccc1OC(=O)COC(=O)/C=C/c1ccc(Cl)cc1; settings: Agaricus bisporus; 16.6 uM; remark: listed apart in the source
[27] = substrate: COc1cc(C=O)ccc1OC(=O)COC(=O)c1ccc(O)cc1O; settings: Agaricus bisporus; 72.2 uM; remark: listed apart in the source
[28] = substrate: COc1cc(C=O)ccc1OC(=O)COC(=O)c1ccc(O)cc1O; settings: Agaricus bisporus; 144.5 uM; remark: listed apart in the source
[29] = substrate: COc1cc(C=O)ccc1OC(=O)COC(=O)c1ccc(O)cc1O; settings: Agaricus bisporus; 289 uM; remark: listed apart in the source
[30] = substrate: COc1cc(C=O)ccc1OC(=O)COC(=O)/C=C/c1ccc(O)cc1; settings: Agaricus bisporus; 8.75 uM; remark: listed apart in the source

IC50 (Tyrosinase [1]): 101 µM
Molecule: COc1cc(C=O)ccc1OC(=O)CN1CCN(c2ccccc2)CC1

IC50 (Tyrosinase [1]): 201 µM
Molecule: COc1cc(C=O)ccc1OC(=O)COC(=O)c1ccc(O)cc1

Ki (Tyrosinase [2]): 41 µM | Ki (Tyrosinase [3]): 100 µM | IC50 (Tyrosinase [1]): 30.9 µM
Molecule: COc1cc(C=O)ccc1OC(=O)COC(=O)/C=C/c1ccc(Cl)cc1

IC50 (Tyrosinase [1]): 78.9 µM
Molecule: COc1cc(C=O)ccc1OC(=O)CCl

IC50 (Tyrosinase [1]): 157 µM
Molecule: COc1cc(C=O)ccc1OC(=O)COC(=O)c1ccc(O)c(O)c1

Ki (Tyrosinase [2]): 13 µM | Ki (Tyrosinase [3]): 53 µM | IC50 (Tyrosinase [1]): 16.1 µM | inhibition [4]: Active
Molecule: COc1cc(C=O)ccc1OC(=O)COC(=O)/C=C/c1ccc(O)cc1
Activity (L929): Dose-dependent effect | Activity (HaCaT): Dose-dependent effect

inhibition [5]: Active | Ki (Tyrosinase [2]): 60 µM | IC50 (Tyrosinase [1]): 21.6 µM
Molecule: COc1cc(C=O)ccc1OC(=O)CN1CCN(C)CC1

IC50 (Tyrosinase [1]): 59.8 µM
Molecule: COc1cc(C=O)ccc1OC(=O)COC(=O)c1cc(O)cc(O)c1

Ki (Tyrosinase [2]): 65 µM | Ki (Tyrosinase [3]): 205 µM | IC50 (Tyrosinase [1]): 42.6 µM
Molecule: COc1cc(C=O)ccc1OC(=O)COC(=O)c1ccc(O)cc1O

B1: Tyrosinase (Agaricus bisporus), O42713 (protein)
chain: MSLIATVGPTGGVKNRLNIVDFVKNEKFFTLYVRSLELLQAKEQHDYSSFFQLAGIHGLPFTEWAKERPSMNLYKAGYCTHGQVLFPTWHRTYLSVLEQILQGAAIEVAKKFTSNQTDWVQAAQDLRQPYWDWGFELMPPDEVIKNEEVNITNYDGKKISVKNPILRYHFHPIDPSFKPYGDFATWRTTVRNPDRNRREDIPGLIKKMRLEEGQIREKTYNMLKFNDAWERFSNHGISDDQHANSLESVHDDIHVMVGYGKIEGHMDHPFFAAFDPIFWLHHTNVDRLLSLWKAINPDVWVTSGRNRDGTMGIAPNAQINSETPLEPFYQSGDKVWTSASLADTARLGYSYPDFDKLVGGTKELIRDAIDDLIDERYGSKPSSGARNTAFDLLADFKGITKEHKEDLKMYDWTIHVAFKKFELKESFSLLFYFASDGGDYDQENCFVGSINAFRGTAPETCANCQDNENLIQEGFIHLNHYLARDLESFEPQDVHKFLKEKGLSYKLYSRGDKPLTSLSVKIEGRPLHLPPGEHRPKYDHTQARVVFDDVAVHVIN
Vmax (10'-4deltaA/s) [6]: 1.66 | Vmax (10'-4deltaA/s) [7]: 1.42 | Vmax (10'-4deltaA/s) [8]: 1.17 | Vmax (10'-5deltaA/s) [9]: 7.14 | Vmax (10'-5deltaA/s) [10]: 2.85 | Km [11]: 400 µM | Km [12]: 400 µM | Km [13]: 400 µM | Km [14]: 400 µM | Km [15]: 400 µM | Vmax (10'-4deltaA/s) [16]: 2 | Vmax (10'-4deltaA/s) [17]: 2.22 | Vmax (10'-4deltaA/s) [18]: 1.96 | Vmax (10'-4deltaA/s) [19]: 1.85 | Km [20]: 830 µM | Km [21]: 1000 µM | Km [22]: 1250 µM | Km [23]: 1330 µM | Km [24]: 1530 µM | Km [25]: 900 µM | Km [26]: 1000 µM | Vmax (10'-4deltaA/s) [27]: 2 | Vmax (10'-4deltaA/s) [28]: 1.53 | Vmax (10'-4deltaA/s) [29]: 1.05 | Vmax (10'-4deltaA/s) [30]: 2.22
